These results are taken from US20250333541A1, “ANTIBODY, AND DRUG CONJUGATE AND USE THEREOF” (EVOPOINT BIOSCIENCES CO., LTD., priority 2022, published 2025).

For assay [1], the target named is T1, cynomolgus monkey TF-His (cynomolgus monkey, UniProt A0A2K5VX02 33-253).
T1 construct: range 33-252; Recombinant extracellular segment expressed in HEK293-EBNA cells and purified on a nickel column; also called c.TF-His; c; TF-his; not shown: His tag from vector pTT5-His
T1 sequence: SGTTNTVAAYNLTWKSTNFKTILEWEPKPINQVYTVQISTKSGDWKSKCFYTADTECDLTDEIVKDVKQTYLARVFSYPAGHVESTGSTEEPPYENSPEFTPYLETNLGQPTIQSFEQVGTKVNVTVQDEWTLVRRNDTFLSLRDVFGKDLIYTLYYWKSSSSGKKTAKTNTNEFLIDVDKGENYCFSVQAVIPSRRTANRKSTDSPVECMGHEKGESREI
The assay is described as follows: ELISA, plate coated with c.TF-His. The method, then: The ELISA plate was coated overnight with TF antigen (h.TF-His or c.TF-His antigen) in 50 mM carbonate coating buffer (CBS coating solution) at a coating concentration of 1 μg/mL in a volume of 100 μL at 4° C. The next day, the coating solution was removed, each well was washed once with 300 μL of PBS, and 100 μL of 2% BSA (Biotopped, A6020) in PBS was added to each well for blocking at 37° C. for 2 h. The test sample was subjected to a gradient dilution with 2% BSA in PBS to establish 11 concentration points. 100 μL of each of the samples obtained by the gradient dilution was added to the plate, and the plate was incubated at 37° C. for 2 h. The supernatant was removed, and each well was washed three times with 300 μL of PBST. 100 μL of HRP-conjugated secondary antibody in 2% BSA was added to each well, and the plate was incubated at 37° C. for 1 h. […] At the end of the incubation, the secondary antibody was removed, each well was washed five times with 300 μL of PBST, and 100 μL of TMB substrate (Huzhou InnoReagents Co., Ltd., TMB-S-004) was added to each well for color development for 5-20 min. 50 μL of 2 N HCl was added to each well to stop the reaction, and OD450 nm values were read using a microplate reader (manufacturer: MD, model: SpectraMax) and imported into GraphPad software for fitting and plotting to determine the binding of the samples to TF antigenic proteins.
The assay was performed as described in the general methods. Briefly, an ELISA plate coated with a human TF-his protein or a cynomolgus monkey TF-his protein was blocked with 2% BSA at 37° C. for 2 h, and each of the antibodies obtained by the gradient dilution (starting at 10 μg/mL, 3-fold graded dilution, 11 concentration points) was added. The plate was incubated at 37° C. for 2 h.
(In general: In an ELISA, binding on a coated surface is turned into a signal by an enzyme label.)

Assay [2] concerns the target T1, cynomolgus monkey TF-His. The assay is described as follows: BLI (ForteBio Octet), antibody on ProA sensor, TF-His as analyte. The method, then: (§1) The dynamic affinity of the humanized antibodies was determined by ForteBio. The experimental procedures were as follows: a ProA sensor (18-5010, Octet) was taken out and pre-wetted with a PBST diluent (pH 7.4) for 10 min. The antibodies to be immobilized were diluted to 5 μg/mL. […] The program was set up, the sensor plate and sample plate were put in, then the program started. The sensor was regenerated with 20 mM glycine solution (pH 1.7). The data were analyzed using Octet analysis software to derive a result graph.

For assay [3], the target named is T2, human TF-His (human, UniProt P13726 33-251).
T2 construct: range 33-251; Recombinant extracellular segment expressed in HEK293-EBNA cells and purified on a nickel column; also called h.TF-His; h; TF-his; not shown: His tag from vector pTT5-His
The description is as above. The method, then: as §1

Assay [4] addresses T3, tissue factor (TF) on the surface of TF-positive tumor cells (human, UniProt P13726 33-295). Description: cell-based or functional assay.
Assay [5] deals with T3, tissue factor (TF) on the surface of …. The assay is described as follows: flow cytometry on KYSE520 cells. The method, then:
A TF low/medium-expressing cell line NCI-H358 (source: Nanjing Cobioer, CBP60136) and a TF high-expressing cell line KYSE520 (source: Nanjing Cobioer, CBP60658) were digested with trypsin, collected by centrifugation, and washed three times with pre-cooled PBS. The cells were resuspended in 1% BSA and seeded into a 96-well sharp-bottom plate at 3×10⁵ cells/well. Each of the antibodies obtained by the gradient dilution was added, and the plate was incubated at 4° C. for 1 h. The cells were washed three times with pre-cooled PBS. 1 μL of anti-human fluorescent secondary antibody (APC anti-human IgG Fc Antibody, Biolegend, 410712) was added to each well, and the plate was incubated at 4° C. for 0.5 h. The cells were washed three times with pre-cooled PBS, resuspended, and detected by a flow cytometer (Sony, LE-SA3800GA). The data were imported into GraphPad software for curve fitting.
A general note: In flow cytometry, cells or beads pass a laser one at a time.

B1: 22F11H5-hz1 (antibody, human IgG1, kappa, V domains shown)
VH: QVQLVQSGAEVKQPGASVKVSCKASGYTFTTYWMHWVRQAPGQGLEWMGMIDPSDSYTTYAQKFQGRVTLTVDTSTSTAYMELSSLRSEDTAVYYCARGSGPGLFAYWGQGTLVTVSS
VL: DIQETQSPSSLSASVGDRVTITCRASQDIRNYLNWYQQKPGKAPKLLIYHTSRLQSGVPSRFSGSGSGTDYTLTISSLQPEDFATYYCQQGNMPPYTFGQGTKVEIKR
notes: Humanized IgG1 kappa
As for B1, the EC50 (as a rule, the concentration giving half of the maximal effect) in assay [1] came to 0.0114 µg/mL. Also, in assay [2], the Kd (as a rule, the constant that tells how readily two partners part at equilibrium) was 12.7 nM; the off-rate constant (koff) – broadly, a measure of how fast the partners let go of each other – was 0.00411 s⁻¹; the kon (as a rule, the second-order rate constant of association) stood at 324000 M⁻¹ s⁻¹. In assay [3], the affinity, expressed as Kd, was 9.8 nM; the koff turned out to be 0.00296 s⁻¹; the kon is 302000 M⁻¹ s⁻¹. For the same molecule, in assay [4], the “coagulation time V50 (s), MDA-MB-231 cells + human plasma, 2 mM Ca2+, 50 µg/mL antibody” value came out at 1640 s and the “coagulation time V50 (s), MDA-MB-231 cells + human plasma, 5 mM Ca2+, 20 µg/mL antibody” value was determined as 49.4 s. This molecule also registered an EC50 in assay [5] of 0.0357 µg/mL.

B2: 27H8H3-hz1 (antibody, human IgG1, kappa, V domains shown)
VH: QVQLVQSGAEVKKPGASVKVSCKASGYTFTTYWMHWVRQAPGQGLEWMGMIDPSDSYTSYAQKFQGRVTLTVDTSTSTAYMELSSLRSEDTAVYYCTRGSGPGLFAYWGQGTLVTVSS
VL: DIQETQSPSSLSASVGDRVTITCRASQGISNYLNWYQQKPGKAPKLLIYHTSRLHSGVPSRFSGSVSGTDFTLTISSLQPEDFATYFCQQGNTLPYTFGQGTKVEIKR
notes: Humanized IgG1 kappa
In assay [1], B2 showed an EC50 of 0.0114 µg/mL. In assay [2], this molecule came in with a Kd of 42.5 nM, a koff of 0.0125 s⁻¹ and a kon of 295000 M⁻¹ s⁻¹. In addition, in assay [3], the dissociation constant (Kd) was 42.5 nM, the koff was 0.0116 s⁻¹ and the kon amounted to 273000 M⁻¹ s⁻¹. Besides, in assay [4], the “coagulation time V50 (s), MDA-MB-231 cells + human plasma, 2 mM Ca2+, 50 µg/mL antibody” value was found to be 750 s and the “coagulation time V50 (s), MDA-MB-231 cells + human plasma, 5 mM Ca2+, 20 µg/mL antibody” value was 26.2 s. This molecule registered an EC50 in assay [5] of 0.0594 µg/mL.
